Experimental data taken from patent US20250262292A1.

Assays:
native host protein [1] = experiment: method not stated; reference is wild type PmSLP-1 (SEQ.ID NO: 2)
native host protein [2] = experiment: method not stated

| Substance | factor by which Kd exceeds that of the native non-modified PmSLP (native host protein [1]) [fold] | Kd (native host protein [2]) [nM] |
| --- | --- | --- |
| modified PmSLP-1 with E240A mutation (SEQ.ID NO: 67) | > 500 | < 2000 |
| modified PmSLP-1 with V214D mutation (SEQ.ID NO: 65) | > 500 | < 2000 |
| wild type PmSLP-1 protein of P. multocida (SEQ.ID NO: 2) |  | 30 |
